Data published in patent publication US20230040928A1 (INSERM INSTITUT NATIONAL DE LA SANTE ET DE LA RECHERCHE …, published 2023).

T1: human HER4-Fc (human, UniProt Q15303 26-651)
T1 construct: Bought protein; also called HER4-Fc antigen; not shown: Fc part of the bought fusion protein, not described
T1 sequence: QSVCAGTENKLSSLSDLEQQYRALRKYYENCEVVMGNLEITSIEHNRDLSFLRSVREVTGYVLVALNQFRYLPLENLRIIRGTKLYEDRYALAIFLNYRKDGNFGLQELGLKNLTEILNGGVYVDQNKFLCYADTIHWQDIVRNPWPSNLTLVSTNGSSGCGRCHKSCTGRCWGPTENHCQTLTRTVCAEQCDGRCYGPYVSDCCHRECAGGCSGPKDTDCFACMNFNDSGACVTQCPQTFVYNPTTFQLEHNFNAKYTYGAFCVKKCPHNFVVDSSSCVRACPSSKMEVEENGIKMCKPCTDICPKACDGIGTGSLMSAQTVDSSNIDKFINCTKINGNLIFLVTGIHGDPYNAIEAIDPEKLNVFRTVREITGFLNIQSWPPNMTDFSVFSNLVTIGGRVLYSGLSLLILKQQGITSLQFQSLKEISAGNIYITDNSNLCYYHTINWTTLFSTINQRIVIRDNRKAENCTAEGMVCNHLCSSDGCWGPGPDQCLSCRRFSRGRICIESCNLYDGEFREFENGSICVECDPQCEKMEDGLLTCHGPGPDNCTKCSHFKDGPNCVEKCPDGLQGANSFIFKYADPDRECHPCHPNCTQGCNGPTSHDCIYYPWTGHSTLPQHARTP


Tests used:
human HER4-Fc [1] = biological target: T1, human HER4-Fc; test: ELISA, human HER4-Fc coated, concentration giving 50% absorbance
Description: (§1) Ninety six-well enzyme immunoassay plates (Nunc Maxisorp) were coated overnight at 4° C. with HER4-Fc antigen at a concentration of 250 ng/ml in PBS pH 7.4. After four washes in PBS, containing 0.1% Tween 20 (PBS-T), plates were saturated with a 2% solution of bovine serum albumin (BSA) in PBS-T buffer for 2 h at 37° C. Two-fold or ten-fold serial dilutions of purified HER4-specific mAbs were added after four washes in PBS-T and plates were incubated at 37° C. for 2 h. Following four washes in PBS-T, 100 μl of a peroxidase-conjugated goat anti-human F(ab′)2 antibody (Jackson Immunoresearch) were added to each well. The conjugate was used at a 1:5000 dilution in PBS-T-2% BSA. The plates were incubated at 37° C. for 1 h and then washed three times in PBS-T and once in PBS. Finally a Tetramethylbenzidine solution (Sigma) was added for 30 min at ambient temperature in the dark. The reaction was stopped by adding 50 μl/well 1M […] and the absorbance was measured at 450 nm. […] HER4-specific antibodies D5 and C6, giving 50%-absorbance at concentration of 20 ng/ml and 100 ng/ml respectively, on human HER4-Fc, are more efficient for binding than F4 and H2, which gave a 50%-absorbance at concentration around 1-5 μg/ml (FIG. 1).

EGFR receptor = biological target: T2, EGFR receptor (UniProt P00533 25-645, limits assumed); test: ELISA
T2 construct: also called Her1; ErbB1

HER2 receptor = biological target: T3, HER2 receptor (UniProt P04626 23-652, limits assumed); test: ELISA
T3 construct: also called Neu; ErbB2

HER3 receptor = biological target: T4, HER3 receptor (UniProt P21860 20-643, limits assumed); test: ELISA
T4 construct: also called ErbB3
T4 sequence (P21860 20-643 limits assumed): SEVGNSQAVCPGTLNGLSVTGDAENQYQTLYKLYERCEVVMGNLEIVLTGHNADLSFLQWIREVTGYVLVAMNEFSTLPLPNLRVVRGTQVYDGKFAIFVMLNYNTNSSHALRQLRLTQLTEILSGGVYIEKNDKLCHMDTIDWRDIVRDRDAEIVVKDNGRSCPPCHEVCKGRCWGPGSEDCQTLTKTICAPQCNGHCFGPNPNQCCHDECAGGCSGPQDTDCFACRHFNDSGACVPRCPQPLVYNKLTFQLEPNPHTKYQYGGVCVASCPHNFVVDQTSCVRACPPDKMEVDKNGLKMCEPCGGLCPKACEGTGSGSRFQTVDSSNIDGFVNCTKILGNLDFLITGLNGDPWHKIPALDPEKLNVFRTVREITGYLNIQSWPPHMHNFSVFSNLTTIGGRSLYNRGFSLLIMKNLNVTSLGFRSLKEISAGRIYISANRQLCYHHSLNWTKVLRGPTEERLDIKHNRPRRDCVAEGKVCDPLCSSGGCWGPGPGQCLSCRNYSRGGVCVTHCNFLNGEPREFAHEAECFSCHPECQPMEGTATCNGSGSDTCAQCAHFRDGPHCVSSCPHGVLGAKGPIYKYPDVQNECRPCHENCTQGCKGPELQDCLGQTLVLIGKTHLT

human HER4-Fc [2] = biological target: T1, human HER4-Fc; test: ELISA, HER4-Fc coated at 250 ng/ml, IgG in solution
Description: as §1

Row | EC50 (human HER4-Fc [1]) [µg/mL] | binding result (EGFR receptor) | binding result (HER2 receptor) | binding result (HER3 receptor) | binding result (human HER4-Fc [2]) | Binder
1 | – | no binding | no binding | no binding | binds | H2 mAb (antibody, V domains shown, also called antibody H2) VH: EVQLVESGGSLVKPGGSLRLSCAASGFTFSNNDMNWVRQAPGKGLEWISDINGSSRYIYYADFVKGRFTISRDNATNSLYLQMNSLRAEDTAVYYCVRSSDDYFGGGMDVWGRGTLVTVSS VL: QSVLTQPASVSGSPGQSITISCAGTSSDVGGYYSVSWYQQHPGKAPKLMIYNDSYRPSGVSNRFSGSKSGNTASLTISGLQAEDEADYYCSSSTYYSTRVFGGGTKLAVLG
2 | – | no binding | no binding | no binding | binds | F4 mAb (antibody, V domains shown, also called antibody F4) VH: EVQLVESGGSLVKPGGSLRLSCAASGFTFSNNDMNWVRQAPGKGLEWISSISGSSRYINYADFVKGRFTISRDNATNSLYLQMNSLRAEDTAVYYCVRSSDDYFGGGMDVWGRGTLVTVSS VL: QSVLTQPASVSGSPGQSITISCAGTSSDVGGYSGVSWYQQHPGKAPKLMIYNDSYRPSGVSNRFSGSKSGNTASLTISGLQAEDEADYYCSSYTNNSTRVFGGGTKLAVLG

The remaining lines, values behind:

Row | Binder | EC50 (human HER4-Fc [1]) [µg/mL] | binding result (EGFR receptor) | binding result (HER2 receptor) | binding result (HER3 receptor) | binding result (human HER4-Fc [2])
3 | C6 mAb (antibody, V domains shown, also called antibody C6; Ab C6) VH: EVQLVESGGSLVKPGGSLRLSCAASGFTFSNYYMNWVRQAPGKGLEWISSISGSSRYIDYADFVKGRFTISRDNATNSLYLQMNSLRAEDTAVYYCVRSSSDYFGGGMDVWGRGTLVTVSS VL: QSVLTQPASVSGSPGQSITISCAGTSSDVGGSYYVSWYQQHPGKAPKLMIYYDSYRPSGVSNRFSGSKSGNTASLTISGLQAEDEADYYCSSSTYNSTRVFGGGTKLAVLG | 0.1 | no binding | no binding | no binding | –
4 | D5 mAb (antibody, V domains shown, also called antibody D5; anti-HER4 antibody D5) VH: EVQLVESGGSLVKPGGSLRLSCAASGFTFSNYYMNWVRQAPGKGLEWISSIDGSSRYIDYADFVKGRFTISRDNATNSLYLQMNSLRAEDTAVYYCVRSSSDYFGGGMDVWGRGTLVTVSS VL: QSVLTQPASVSGSPGQSITISCAGTSSDVGGSSYVSWYQQHPGKAPKLMIYYDSYRPSGVSNRFSGSKSGNTASLTISGLQAEDEADYYCSSNTYYSTRVFGGGTKLAVLG | 0.02 | no binding | no binding | no binding | –
